Laboratory results as given in patent US20030119169A1.
No end group written: not given here.

Target: T1, CPP32, bacterially expressed recombinant active enzyme (human), P42574
T1 chain: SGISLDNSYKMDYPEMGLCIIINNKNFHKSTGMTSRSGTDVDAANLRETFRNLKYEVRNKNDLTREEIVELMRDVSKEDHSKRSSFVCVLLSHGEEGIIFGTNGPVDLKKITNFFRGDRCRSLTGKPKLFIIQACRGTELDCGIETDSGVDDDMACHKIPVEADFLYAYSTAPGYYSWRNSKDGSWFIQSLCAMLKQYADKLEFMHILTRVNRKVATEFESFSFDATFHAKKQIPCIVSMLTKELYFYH
Experiment: inhibition of hydrolysis of 10 µM DEVD-AMC, continuous fluorometric assay, bacterial lysate, 30 min preincubation
Conditions: remark: other sources report otherwise

YVAD-aldehyde [YVAD aldehyde]
Ki: 8.5 µM
